Results on one molecule are retold here after publication PMC6736635.

Read-outs that look alike come from different tables or passages of the source.

Common to all, as to assay: fluorescence anisotropy
For orientation: In fluorescence polarisation assays a small probe gives low polarisation when free and higher when bound to something large.

The target in series [1] is PRC2-AEBP2 mt5 (Homo sapiens, UniProt Q15910;Q15022;O75530;Q09028;Q6ZN18 1-746;1-739;1-441;1-425;1-517, Y133A;T144A;F145A;Y153A;Y308A).
The target in series [2] is PRC2-AEBP2 mt4 (Homo sapiens, UniProt Q15910;Q15022;O75530;Q09028;Q6ZN18 1-746;1-739;1-441;1-425;1-517, K656A).
For series [3], the target named is PRC2-AEBP2 mt1 (Homo sapiens, UniProt Q15910;Q15022;O75530;Q09028;Q6ZN18 1-746;1-739;1-441;1-425;1-517, R27A;R31A;F165A;R355A).
Series [4] concerns the target PRC2-MTF2-EPOP (Homo sapiens, UniProt Q15910;Q15022;O75530;Q09028;Q9Y483;A6NHQ4 1-746;1-739;1-441;1-425;1-593;1-379).
For series [5], the target named is T1, PRC2-AEBP2 (Homo sapiens, UniProt Q15910;Q15022;O75530;Q09028;Q6ZN18 1-746;1-739;1-441;1-425;1-517).
Series [6] has as its target PRC2-PHF19 (Homo sapiens, UniProt Q15910;Q15022;O75530;Q09028;Q5T6S3 1-746;1-739;1-441;1-425;1-580).
Series [7] deals with PRC2-MTF2 (Homo sapiens, UniProt Q15910;Q15022;O75530;Q09028;Q9Y483 1-746;1-739;1-441;1-425;1-593).
For series [8], the target named is PRC2 core (EZH2-EED-SUZ12-RBBP4) (Homo sapiens, UniProt Q15910;Q15022;O75530;Q09028 1-746;1-739;1-441;1-425).
The target in series [9] is PRC2-AEBP2 mt2 (Homo sapiens, UniProt Q15910;Q15022;O75530;Q09028;Q6ZN18 1-746;1-739;1-441;1-425;1-517, H129A;K156A;H158A;G159A;R161A;R306A).
The target of series [10] is PRC2-AEBP2 mt3 (Homo sapiens, UniProt Q15910;Q15022;O75530;Q09028;Q6ZN18 1-746;1-739;1-441;1-425;1-517, R16A;K17A;R18A;K20A).
Series [11] deals with T1, PRC2-AEBP2. The source holds these as a separate data set.
Series [12] concerns the target T1, PRC2-AEBP2. The source holds these as a separate data set.

Sequence of PRC2 core (EZH2-EED-SUZ12-RBBP4) (Q15910 whole entry, chain 1 of 4): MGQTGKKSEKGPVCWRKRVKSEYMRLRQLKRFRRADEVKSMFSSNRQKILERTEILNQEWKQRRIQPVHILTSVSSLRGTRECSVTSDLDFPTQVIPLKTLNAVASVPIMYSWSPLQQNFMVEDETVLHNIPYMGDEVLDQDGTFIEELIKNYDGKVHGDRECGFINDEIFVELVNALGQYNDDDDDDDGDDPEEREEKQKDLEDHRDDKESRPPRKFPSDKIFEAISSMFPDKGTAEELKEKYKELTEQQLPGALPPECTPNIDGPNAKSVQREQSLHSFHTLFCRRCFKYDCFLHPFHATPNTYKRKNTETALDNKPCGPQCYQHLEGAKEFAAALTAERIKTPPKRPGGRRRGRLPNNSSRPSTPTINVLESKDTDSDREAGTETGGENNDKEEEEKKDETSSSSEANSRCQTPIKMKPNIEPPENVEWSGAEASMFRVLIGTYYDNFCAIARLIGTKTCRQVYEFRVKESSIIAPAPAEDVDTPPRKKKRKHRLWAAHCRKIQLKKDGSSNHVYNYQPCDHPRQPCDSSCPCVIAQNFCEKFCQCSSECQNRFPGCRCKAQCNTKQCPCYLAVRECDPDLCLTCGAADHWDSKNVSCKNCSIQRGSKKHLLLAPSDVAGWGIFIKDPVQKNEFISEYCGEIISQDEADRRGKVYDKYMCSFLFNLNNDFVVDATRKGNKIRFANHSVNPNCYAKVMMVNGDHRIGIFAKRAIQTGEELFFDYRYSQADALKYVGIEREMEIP
Sequence of PRC2 core (EZH2-EED-SUZ12-RBBP4) (Q15022 whole entry, chain 2 of 4): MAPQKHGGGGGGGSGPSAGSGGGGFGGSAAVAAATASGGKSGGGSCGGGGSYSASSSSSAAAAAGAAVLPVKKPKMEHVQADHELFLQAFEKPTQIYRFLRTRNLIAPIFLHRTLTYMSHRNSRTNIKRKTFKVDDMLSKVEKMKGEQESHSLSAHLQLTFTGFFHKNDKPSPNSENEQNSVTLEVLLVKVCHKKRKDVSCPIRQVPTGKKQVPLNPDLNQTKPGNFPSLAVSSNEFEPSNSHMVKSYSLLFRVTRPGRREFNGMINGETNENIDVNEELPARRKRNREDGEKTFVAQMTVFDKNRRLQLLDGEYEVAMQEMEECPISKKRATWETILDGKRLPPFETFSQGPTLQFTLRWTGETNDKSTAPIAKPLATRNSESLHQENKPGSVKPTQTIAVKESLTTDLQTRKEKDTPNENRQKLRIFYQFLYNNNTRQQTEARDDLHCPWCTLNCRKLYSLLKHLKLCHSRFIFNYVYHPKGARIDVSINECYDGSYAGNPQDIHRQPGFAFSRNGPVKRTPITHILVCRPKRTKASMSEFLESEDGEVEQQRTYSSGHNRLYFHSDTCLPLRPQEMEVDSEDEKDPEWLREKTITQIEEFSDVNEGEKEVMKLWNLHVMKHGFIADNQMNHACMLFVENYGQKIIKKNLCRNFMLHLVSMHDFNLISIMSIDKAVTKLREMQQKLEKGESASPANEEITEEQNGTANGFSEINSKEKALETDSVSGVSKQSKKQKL
Sequence of PRC2 core (EZH2-EED-SUZ12-RBBP4) (O75530 whole entry, chain 3 of 4): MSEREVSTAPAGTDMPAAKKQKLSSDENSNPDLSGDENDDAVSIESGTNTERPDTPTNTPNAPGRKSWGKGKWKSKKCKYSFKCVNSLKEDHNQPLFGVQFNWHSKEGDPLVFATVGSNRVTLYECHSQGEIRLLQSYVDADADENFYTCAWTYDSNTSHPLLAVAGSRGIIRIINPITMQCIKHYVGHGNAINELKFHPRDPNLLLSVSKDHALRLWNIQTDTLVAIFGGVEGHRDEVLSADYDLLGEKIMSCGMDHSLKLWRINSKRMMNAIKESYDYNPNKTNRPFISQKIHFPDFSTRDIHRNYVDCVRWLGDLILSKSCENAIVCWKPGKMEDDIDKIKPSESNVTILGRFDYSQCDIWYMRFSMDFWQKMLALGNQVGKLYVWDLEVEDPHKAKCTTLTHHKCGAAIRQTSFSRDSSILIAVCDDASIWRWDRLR
Sequence of PRC2 core (EZH2-EED-SUZ12-RBBP4) (Q09028 whole entry, chain 4 of 4): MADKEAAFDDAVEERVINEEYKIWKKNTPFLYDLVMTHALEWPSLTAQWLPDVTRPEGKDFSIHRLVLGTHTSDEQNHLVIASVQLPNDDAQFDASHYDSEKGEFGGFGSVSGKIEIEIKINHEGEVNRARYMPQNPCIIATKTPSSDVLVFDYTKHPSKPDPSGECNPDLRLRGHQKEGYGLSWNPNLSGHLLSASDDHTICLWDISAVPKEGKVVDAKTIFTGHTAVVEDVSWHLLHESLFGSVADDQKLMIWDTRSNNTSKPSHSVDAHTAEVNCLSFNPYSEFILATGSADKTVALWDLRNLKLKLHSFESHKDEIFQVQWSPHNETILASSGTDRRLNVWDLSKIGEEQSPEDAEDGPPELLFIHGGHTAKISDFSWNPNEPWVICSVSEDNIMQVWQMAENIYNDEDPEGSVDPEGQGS

In the case of UUAGGGUUAGGGUUAGGGUUAGGG (structured_RNA) [G4 24 RNA], the dissociation constant Kd – broadly, the constant that tells how readily two partners part at equilibrium – in [1] was 93.7 ± 6.3 nM; in series [2], 102 ± 4 nM; in [3], 173 ± 7 nM; in series [4], 40.9 ± 3.9 nM; in [5] it was 54.6 ± 3.8 nM; in series [6], 34 ± 1.8 nM. For the same molecule, the Kd in series [7] turned out to be 82.4 ± 9.8 nM; in series [8] it was 129 ± 6 nM; in [9], 141 ± 8 nM; in series [10] it was 124 ± 7 nM; in series [11] it was 19.2 ± 2.7 nM; in [12], 60.5 ± 2.2 nM.
